Test results as given in patent publication US20050182242A1, “Global analysis of protein activities using proteome chips” (priority 2001, published 2005).

B1: APG7: yeast GST-HisX6 fusion protein on proteome chip (protein, UniProt P38862 1-630, looked up)
Ubiquitin-like …: MSSERVLSYAPAFKSFLDTSFFQELSRLKLDVLKLDSTCQPLTVNLDLHNIPKSADQVPLFLTNRSFEKHNNKRTNEVPLQGSIFNFNVLDEFKNLDKQLFLHQRALECWEDGIKDINKCVSFVIISFADLKKYRFYYWLGVPCFQRPSSTVLHVRPEPSLKGLFSKCQKWFDVNYSKWVCILDADDEIVNYDKCIIRKTKVLAIRDTSTMENVPSALTKNFLSVLQYDVPDLIDFKLLIIRQNEGSFALNATFASIDPQSSSSNPDMKVSGWERNVQGKLAPRVVDLSSLLDPLKIADQSVDLNLKLMKWRILPDLNLDIIKNTKVLLLGAGTLGCYVSRALIAWGVRKITFVDNGTVSYSNPVRQALYNFEDCGKPKAELAAASLKRIFPLMDATGVKLSIPMIGHKLVNEEAQHKDFDRLRALIKEHDIIFLLVDSRESRWLPSLLSNIENKTVINAALGFDSYLVMRHGNRDEQSSKQLGCYFCHDVVAPTDSLTDRTLDQMCTVTRPGVAMMASSLAVELMTSLLQTKYSGSETTVLGDIPHQIRGFLHNFSILKLETPAYEHCPACSPKVIEAFTDLGWEFVKKALEHPLYLEEISGLSVIKQEVERLGNDVFEWEDDESDEIA
modifications: GST-His6 tag
notes: yeast GST-HisX6 fusion protein on proteome chip
B2: YEL064C: yeast GST-HisX6 fusion protein on proteome chip (protein, UniProt P39981 1-480, looked up)
Vacuolar amino acid …: MSELGEYSKLENKELRTEFELTNFPFPGTTDNDSDDGSQGQNSLNIITPDMDDTLVNDVLRENDKKSSMRMAFMNLANSILGAGIITQPFAIKNAGILGGLLSYVALGFIVDWTLRLIVINLTLAGKRTYQGTVEHVMGKKGKLLILFTNGLFAFGGCIGYCIIIGDTIPHVLRAIFSQNDGNVHFWLRRNVIIVMVTTFISFPLSMKRNIEALSKASFLAVISMIIIVLTVVIRGPMLPYDWKGHSLKLSDFFMKATIFRSLSVISFALVCHHNTSFIFFSMRNRSVAKFTRLTHISIIISVICCALMGYSGFAVFKEKTKGNVLNSFPGTDTAINIARLCFGFNMLTTFPMEIFVLRDVVGNLLHECNLIKNYDEHTQLSGKQHVVITSSLVFITMGISLTTCNLGALFELIGATTASTMAYILPPYTNLLLTSKKKSWKERLPFYLCICFGFMIMIISSTQTIIDAVNGSDGQHCQI
modifications: GST-His6 tag
notes: as for B1
B3: SPO1: yeast GST-HisX6 fusion protein on proteome chip (protein, UniProt P53541 18-631, looked up)
Putative meiotic …: TAPFQVQCPSSPLIREAKHELCPEETLYLKKKKIKTKNKLIQFLKSLTEAKFSSKFYKRVLKDPPKIGIAISGGGYRSMLVGTGFISQMNDYGLFEYSDYIAGLSGGSWILMDLVVQNFEVKSLLQEWDLEEDLLLGIPEFDISEEEIVTNAKKEYNDNDLKMKKRQGGSLITSSSNFYEQIEEIMNSIEEIPEDYMITKRNLNPLARLKKIFFPNNTFTGTDAKIETFKKVLDFYKSLHLKIKPKKMEGFQISFTDYWGKAIVQRLKKNFDDDPNHSFSFSKLVNSSKKFKECSVPIPIFVANCKNGLLSNVIFEFTPFEFGSWENILRLFVKLPYLGSKIVSGKAEKCINNFDDLGFITATSSSIFNNVLIFIWNLASQSSREAMKALNMVMGIFGLGKEEIFSISKDSSRLETDYAVYQPNPFYLYPEKDNVLTNKNHLYLVDGGEDGENIPLRTLVIPERELDVIFVLDSSSDIDNYPNGSKLKRIFEKLDEENVHYQFPNNVKTFTHPIVIGCNATKRTGHDSFLPIIIYHANANHGNASNTSTFKITYNQSEVSSMLPTGRGVFSNDYDLYYKNCLGCILTKRTMDRLPRKKKFSPFCLQCFKDYCYS
modifications: GST-His6 tag
notes: as for B1

Legend:
Conditions in all cases: liposome binding signal on yeast proteome chip, Cy3-streptavidin detection
[1] = system: PI(4,5)P2 liposomes; assay: Yeast proteome chip probed with PI(4,5)P2 liposomes
[2] = system: PI(3,4,5)P3 liposomes; assay: Yeast proteome chip probed with PI(3,4,5)P3 liposomes
[3] = system: phosphatidylcholine (PC) liposomes; assay: Yeast proteome chip probed with PC liposomes
How it was run: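 Yeast proteome chips incubated 1 h at RT with sonicated liposomes of PC containing 1% (w/w) biotin-DHPE, plus 5% (w/w) of the indicated phosphoinositide where applicable. After PBS washes, bound liposomes detected with Cy3- or Cy5-streptavidin (>30 min, RT, dark) and fluorescence scanned.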

[4] = system: PI(4)P liposomes; assay: Yeast proteome chip probed with PI(4)P liposomes
[5] = system: PI(3)P liposomes; assay: Yeast proteome chip probed with PI(3)P liposomes
[6] = system: PI(3,4)P2 liposomes; assay: Yeast proteome chip probed with PI(3,4)P2 liposomes

Molecule | PI(4, 5)P2 [1] | PI(3, 4, 5)P3 [2] | PC [3] | PI(4)P [4] | PI(3)P [5] | PI(3, 4)P2 [6]
B1 | 59.23 | 0.45 | 5.87 | 18.29 | −22.50 | −0.63
B2 | 6.53 | −0.90 | 5.28 | −3.92 | −5.00 | −3.14
B3 | 14.37 | −9.22 | 5.58 | 0.44 | −6.50 | 18.99
